Assay [1] concerns the target extracellular domain of human LEPR, GPI-anchored on HEK293 cells (HEK293/hLEPR-GPI) (human). In words: FACS, HEK293/hLEPR-GPI, 1 µM Leptin. In general terms: A flow cytometer gives signals particle by particle.
Assay [2] has the same target. In words: FACS, HEK293/hLEPR-GPI.
Assay [3] has the same target. Put plainly: FACS, HEK293/hLEPR-GPI, no added Leptin.
Assay [4] deals with full length human LEPR on cells (human) (UniProt P48357). In words: FACS, HEK293/Stat3-luc/hLEPR-FL.
Sequence of full length human LEPR on cells (human) (P48357 22-1165): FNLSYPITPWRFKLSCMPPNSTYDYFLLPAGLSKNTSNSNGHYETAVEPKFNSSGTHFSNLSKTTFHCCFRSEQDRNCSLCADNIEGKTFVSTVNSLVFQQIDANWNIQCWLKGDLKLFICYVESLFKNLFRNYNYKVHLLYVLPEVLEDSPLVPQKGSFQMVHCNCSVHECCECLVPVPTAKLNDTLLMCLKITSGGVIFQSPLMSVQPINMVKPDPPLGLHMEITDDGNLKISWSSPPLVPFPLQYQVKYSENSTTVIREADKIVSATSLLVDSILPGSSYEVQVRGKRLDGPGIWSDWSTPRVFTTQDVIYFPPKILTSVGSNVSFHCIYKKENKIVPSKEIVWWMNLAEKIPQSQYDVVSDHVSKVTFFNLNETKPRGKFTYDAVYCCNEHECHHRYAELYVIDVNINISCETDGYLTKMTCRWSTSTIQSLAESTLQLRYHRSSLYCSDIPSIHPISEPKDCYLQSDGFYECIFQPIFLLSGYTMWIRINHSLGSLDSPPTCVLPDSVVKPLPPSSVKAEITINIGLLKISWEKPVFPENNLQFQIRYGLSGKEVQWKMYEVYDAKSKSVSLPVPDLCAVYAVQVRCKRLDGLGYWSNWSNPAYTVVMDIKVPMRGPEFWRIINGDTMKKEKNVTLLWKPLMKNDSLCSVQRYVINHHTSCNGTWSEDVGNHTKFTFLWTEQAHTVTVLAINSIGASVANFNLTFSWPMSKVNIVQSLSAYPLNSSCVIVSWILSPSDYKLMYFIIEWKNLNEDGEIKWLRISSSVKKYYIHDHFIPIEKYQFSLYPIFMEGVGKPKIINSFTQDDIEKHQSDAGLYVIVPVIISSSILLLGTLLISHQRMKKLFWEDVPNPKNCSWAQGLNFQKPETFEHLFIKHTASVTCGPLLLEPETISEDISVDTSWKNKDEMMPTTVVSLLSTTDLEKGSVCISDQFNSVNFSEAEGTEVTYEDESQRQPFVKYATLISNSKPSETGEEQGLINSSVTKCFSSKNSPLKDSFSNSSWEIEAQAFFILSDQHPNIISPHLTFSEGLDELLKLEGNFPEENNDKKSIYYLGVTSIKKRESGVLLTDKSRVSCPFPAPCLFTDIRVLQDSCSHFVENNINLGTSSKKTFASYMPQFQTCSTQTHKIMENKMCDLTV
Assay [5] deals with extracellular domain of human LEPR, GPI-anchored on HEK293 cells (HEK293/hLEPR-GPI) (human). Put plainly: FACS, HEK293/hLEPR-GPI, 70 nM Ab.
Assay [6] has as its target Macaca fascicularis LEPR extracellular domain expressed with a C-terminal myc-myc-hexahistidine tag (mfLEPR.mmh) (Macaca fascicularis). In words: SPR, captured mAb, 25C. For orientation: Surface plasmon resonance follows binding to a sensor surface in real time, without labels.
Assay [7] has as its target full length human LEPR on cells (human) (UniProt P48357). Put plainly: FACS, HEK293/Stat3-luc/hLEPR-FL, 70 nM Ab.

Sequence of Macaca fascicularis LEPR extracellular domain expressed with a C-terminal myc-myc-hexahistidine tag (mfLEPR.mmh) (Macaca fascicularis) (Q9MYL0 other isoform, or with tags, fused parts or gaps): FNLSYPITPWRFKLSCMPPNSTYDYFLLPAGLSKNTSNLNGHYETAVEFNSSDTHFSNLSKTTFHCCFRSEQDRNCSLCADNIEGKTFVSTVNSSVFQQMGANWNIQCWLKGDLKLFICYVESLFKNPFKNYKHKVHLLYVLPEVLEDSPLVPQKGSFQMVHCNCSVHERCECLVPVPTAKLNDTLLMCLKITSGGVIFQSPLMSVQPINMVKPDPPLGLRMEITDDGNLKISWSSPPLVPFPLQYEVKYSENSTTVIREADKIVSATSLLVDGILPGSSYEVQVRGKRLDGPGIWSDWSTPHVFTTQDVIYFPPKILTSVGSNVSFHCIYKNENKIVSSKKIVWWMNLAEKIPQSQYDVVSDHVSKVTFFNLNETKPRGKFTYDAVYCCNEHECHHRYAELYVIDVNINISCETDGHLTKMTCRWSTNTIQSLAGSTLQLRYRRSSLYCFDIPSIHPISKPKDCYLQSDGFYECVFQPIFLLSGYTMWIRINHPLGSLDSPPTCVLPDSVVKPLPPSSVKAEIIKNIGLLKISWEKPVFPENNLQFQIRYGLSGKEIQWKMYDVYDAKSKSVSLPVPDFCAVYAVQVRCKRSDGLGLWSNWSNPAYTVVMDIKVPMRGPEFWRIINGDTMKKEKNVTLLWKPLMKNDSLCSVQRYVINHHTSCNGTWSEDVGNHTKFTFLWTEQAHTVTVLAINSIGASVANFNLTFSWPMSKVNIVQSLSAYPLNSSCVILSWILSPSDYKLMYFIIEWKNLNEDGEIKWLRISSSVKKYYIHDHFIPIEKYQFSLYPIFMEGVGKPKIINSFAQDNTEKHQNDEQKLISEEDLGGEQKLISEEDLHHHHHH

As for “Alexa Fluor-647 conjugated secondary antibody (Jackson ImmunoResearch Laboratories Inc., #109-547-003)”, the Binding Ratio (fold over unstained) in assay [1] was 3; in assay [2] it was 1; in assay [3], 3; in assay [4], 1.

In the case of Isotype Control mAb (antibody), the Binding Ratio (fold over unstained) in assay [5] and in assay [7] was 2 each time. The 100 nM mfLEP.MMH Bound (RU) in assay [6] was determined as 0 RU.

The values above are taken from US20250051465A1.
